The target in data set [1] is human glycine receptor β subunit, cryo-EM construct βem (human). The experiment in a line: cryo-EM structure; α1emβem GlyR co-expressed and co-purified through the PA tag on βem; single-particle cryo-EM in 0.06% digitonin, 20 mM Tris pH 8.0, 200 mM NaCl; apo and with 2 mM glycine (states apo, gly-1 open, gly-2 expanded open, gly-3 desensitized).
Data set [2] deals with the molecule itself. Described as above.

Sequence of human glycine receptor β subunit, cryo-EM construct βem (human) (P48167 whole entry): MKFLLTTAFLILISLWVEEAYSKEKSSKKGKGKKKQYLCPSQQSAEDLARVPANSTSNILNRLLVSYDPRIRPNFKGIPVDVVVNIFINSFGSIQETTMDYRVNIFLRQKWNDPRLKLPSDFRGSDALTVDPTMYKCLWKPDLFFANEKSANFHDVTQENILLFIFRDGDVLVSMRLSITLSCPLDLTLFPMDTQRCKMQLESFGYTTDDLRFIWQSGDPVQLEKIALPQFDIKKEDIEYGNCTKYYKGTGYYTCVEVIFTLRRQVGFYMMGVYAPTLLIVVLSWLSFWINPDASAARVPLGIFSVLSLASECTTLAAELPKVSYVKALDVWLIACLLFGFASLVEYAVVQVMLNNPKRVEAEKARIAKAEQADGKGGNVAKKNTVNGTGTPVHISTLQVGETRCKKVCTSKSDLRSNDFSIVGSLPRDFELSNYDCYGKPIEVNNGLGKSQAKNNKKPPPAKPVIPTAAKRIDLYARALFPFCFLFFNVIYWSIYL

B1: human glycine receptor α1 subunit, cryo-EM construct α1em (receptor)
chain: ARSAPKPMSPSDFLDKLMGRTSGYDARIRPNFKGPPVNVSCNIFINSFGSIAETTMDYRVNIFLRQQWNDPRLAYNEYPDDSLDLDPSMLDSIWKPDLFFANEKGAHFHEITTDNKLLRISRNGNVLYSIRITLTLACPMDLKNFPMDVQTCIMQLESFGYTMNDLIFEWQEQGAVQVADGLTLPQFILKEEKDLRYCTKHYNTGKFTCIEARFHLERQMGYYLIQMYIPSLLIVILSWISFWINMDAAPARVGLGITTVLTMTTQSSGSRASLPKVSYVKAIDIWMAVCLLFVFSALLEYAAVNFVSRQHKELLGSSGEEMRKLFIQRAKKIDKISRIGFPMAFLIFNMFYWIIYKIVRREDVHNQ
notes: human glycine receptor α1, NCBI NP_001139512.1, the part before the M3/M4 loop (residues up to L315); linker that replaces the M3/M4 loop residues R316-P381; human glycine receptor α1, NCBI NP_001139512.1, the part after the replaced M3/M4 loop (E382 to the C-terminal Q429); Four copies stand in each α1emβem pentamer; also called GlyR α1; α subunit; source: HEK293S GnTI- cells, BacMam baculovirus …
For B1, the stoichiometry N (α1 subunits per β subunit) in data set [1] is 4. Also, the binding result in data set [2] was “binds”.

Source of the values: PMC10567788, “Asymmetric gating of a human hetero-pentameric glycine receptor” (Nature Communications, 2023).
